Test results from US20080267971A1 (published 2008).

B2: human Angiopoietin-1 (ligand)
chain: SNQRRSPENSGRRYNRIQHGQCAYTFILPEHDGNCRESTTDQYNTNALQRDAPHVEPDFSSQKLQHLEHVMENYTQWLQKLENYIVENMKSEMAQIQQNAVQNHTATMLEIGTSLLSQTAEQTRKLTDVETQVLNQTSRLEIQLLENSLSTYKLEKQLLQQTNEILKIHEKNSLLEHKILEMEGKHKEELDTLKEEKENLQGLVTRQTYIIQELEKQLNRATTNNSVLQKQQLELMDTVHNLVNLCTKEVLLKGGKREEEKPFRDCADVYQAGFNKSGIYTIYINNMPEPKKVFCNMDVNGGGWTVIQHREDGSLDFQRGWKEYKMGFGNPSGEYWLGNEFIFAITSQRQYMLRIELMDWEGNRAYSQYDRFHIGNEKQNYRLYLKGHTGTAGKQSSLILHGADFSTKDADNDNCMCKCALMLTGGWWFDACGPSNLNGMFYTAGQNHGKLNGIKWHYFKGPSYSLRSTTMMIRPLDF
notes: Bought recombinant protein (R&D Systems 293-AN-025/CF) or supernatant of transfected 293F cells; also called Ang-1; recombinant Ang-1

Assays:
human Angiopoietin-1 = molecular target: B2; test: capture ELISA
Protocol: The binding of the top 27 human monoclonal antibodies was detected with a HRP-conjugated goat anti-human antibody, followed by colorimetric horseradish peroxidase substrate (Enhanced K-Blue TMB substrate Neogen Corporation). The absorbance of each well of the ELISA plates was measured at 450 nm on a microplate autoreader.

mouse Angiopoietin-2 = molecular target: T1, mouse Angiopoietin-2 (mouse, UniProt O35608 19-496); test: ELISA, recombinant mouse Ang-2
T1 construct: Used as conditioned medium of transfectants; also called mAng-2; mouse Ang-2
T1 sequence: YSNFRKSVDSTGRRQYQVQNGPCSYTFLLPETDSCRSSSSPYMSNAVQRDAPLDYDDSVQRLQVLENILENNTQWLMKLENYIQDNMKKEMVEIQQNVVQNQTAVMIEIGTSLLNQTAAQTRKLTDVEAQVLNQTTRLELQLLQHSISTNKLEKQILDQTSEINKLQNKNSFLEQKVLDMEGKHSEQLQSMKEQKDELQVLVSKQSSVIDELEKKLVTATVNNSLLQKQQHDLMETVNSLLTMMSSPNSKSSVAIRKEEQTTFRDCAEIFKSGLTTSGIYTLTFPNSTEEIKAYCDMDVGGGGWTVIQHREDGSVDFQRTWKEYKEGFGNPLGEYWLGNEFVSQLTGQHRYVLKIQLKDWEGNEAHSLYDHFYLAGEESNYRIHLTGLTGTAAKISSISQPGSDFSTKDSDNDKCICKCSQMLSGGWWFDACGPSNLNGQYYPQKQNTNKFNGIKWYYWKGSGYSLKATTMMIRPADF

[1] = molecular target: T2, recombinant human Tie2/Fc fusion protein (human, UniProt Q02763 23-745); test: FACS competition: binding of His-tagged recombinant human Ang-1 to Tie2 on HEK293F/Tie2 transfectants, soluble Tie2/Fc titrated, n = 3
T2 construct: Bought fusion protein; also called hTie2/Fc; soluble Tie2/Fc
T2 sequence (Q02763 23-745 limits assumed): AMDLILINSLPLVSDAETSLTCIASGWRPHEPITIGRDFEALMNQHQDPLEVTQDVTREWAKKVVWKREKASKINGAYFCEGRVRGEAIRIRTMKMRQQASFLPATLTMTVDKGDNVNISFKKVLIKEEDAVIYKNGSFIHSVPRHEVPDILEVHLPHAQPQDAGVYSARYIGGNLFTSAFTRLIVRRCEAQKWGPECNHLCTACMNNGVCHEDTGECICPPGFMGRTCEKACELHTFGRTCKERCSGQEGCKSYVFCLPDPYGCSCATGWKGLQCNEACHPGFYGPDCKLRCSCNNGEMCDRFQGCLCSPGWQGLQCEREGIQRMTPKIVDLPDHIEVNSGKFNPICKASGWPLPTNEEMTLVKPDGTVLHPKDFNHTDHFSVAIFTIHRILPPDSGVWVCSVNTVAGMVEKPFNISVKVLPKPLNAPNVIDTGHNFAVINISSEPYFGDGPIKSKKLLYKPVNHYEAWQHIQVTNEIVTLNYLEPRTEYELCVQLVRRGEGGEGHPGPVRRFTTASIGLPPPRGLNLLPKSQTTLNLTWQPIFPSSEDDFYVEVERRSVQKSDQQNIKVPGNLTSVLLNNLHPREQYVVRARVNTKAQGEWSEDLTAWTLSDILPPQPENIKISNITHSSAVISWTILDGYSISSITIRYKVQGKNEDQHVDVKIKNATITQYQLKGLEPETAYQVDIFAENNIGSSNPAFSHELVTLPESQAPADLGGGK
Protocol: Cell suspension of 4 million cells/mL in FACS Buffer were prepared, and then aliquoted to a 96-well polypropylene plate with 50 ul per well. […] Cells were washed by centrifuging the plate at 1,200 rpm for 5 minutes, removing the supernatant by aspirating, and resuspending the cells with 200 ul per well of FACS Buffer. Washing procedures were repeated twice. The cells were then suspended with 100 ul of mouse Anti-6×-Histidine antibody diluted to 2 ug/ml in FACS Buffer, and incubated at room temperature for 30 minutes. After washing, the cells were suspended in 100 ul of PE-conjugated goat anti-mouse-IgG, which was diluted 1:100 in FACS Buffer, for incubation at room temperature for 30 minutes. The volume of the samples were brought to 300 ul with FACS Buffer, and measured with FACS Calibur.

human Ang-2443 = molecular target: T3, human Ang-2443 (human, UniProt O15123 19-496); test: ELISA
T3 construct: Splice variant missing amino acids 96-148; supernatant of transfected 293F cells
T3 sequence: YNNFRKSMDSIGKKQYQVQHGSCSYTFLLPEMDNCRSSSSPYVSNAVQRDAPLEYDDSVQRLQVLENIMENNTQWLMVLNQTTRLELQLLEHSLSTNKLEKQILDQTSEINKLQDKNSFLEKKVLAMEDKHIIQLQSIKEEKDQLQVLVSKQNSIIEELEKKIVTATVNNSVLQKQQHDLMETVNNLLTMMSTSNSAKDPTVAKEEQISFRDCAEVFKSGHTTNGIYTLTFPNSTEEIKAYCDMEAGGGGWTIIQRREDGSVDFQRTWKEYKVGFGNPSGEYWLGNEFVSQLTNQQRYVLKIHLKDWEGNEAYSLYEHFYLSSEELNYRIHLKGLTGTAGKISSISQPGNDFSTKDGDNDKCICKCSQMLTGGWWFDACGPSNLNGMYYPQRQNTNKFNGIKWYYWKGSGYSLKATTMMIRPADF

[2] = molecular target: T4, Human Ang-1/2 BsmI chimeric molecule (human); test: ELISA
T4 chain: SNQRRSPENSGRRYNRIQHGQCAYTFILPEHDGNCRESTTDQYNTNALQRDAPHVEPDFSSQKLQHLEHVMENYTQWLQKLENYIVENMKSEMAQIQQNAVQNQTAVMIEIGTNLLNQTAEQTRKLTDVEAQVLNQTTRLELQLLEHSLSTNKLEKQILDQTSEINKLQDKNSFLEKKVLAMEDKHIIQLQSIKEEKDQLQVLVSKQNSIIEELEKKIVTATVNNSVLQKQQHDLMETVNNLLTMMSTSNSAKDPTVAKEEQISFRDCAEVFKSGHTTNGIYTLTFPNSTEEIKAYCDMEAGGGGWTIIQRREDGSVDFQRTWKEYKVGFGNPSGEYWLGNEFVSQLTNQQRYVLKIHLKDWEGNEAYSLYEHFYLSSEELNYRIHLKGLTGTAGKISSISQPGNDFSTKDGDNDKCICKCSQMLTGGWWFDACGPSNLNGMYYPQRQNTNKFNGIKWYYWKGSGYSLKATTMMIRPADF

human Ang-2 V345M = molecular target: T5, human Ang-2 V345M (human, UniProt O15123 19-496); test: ELISA
T5 sequence: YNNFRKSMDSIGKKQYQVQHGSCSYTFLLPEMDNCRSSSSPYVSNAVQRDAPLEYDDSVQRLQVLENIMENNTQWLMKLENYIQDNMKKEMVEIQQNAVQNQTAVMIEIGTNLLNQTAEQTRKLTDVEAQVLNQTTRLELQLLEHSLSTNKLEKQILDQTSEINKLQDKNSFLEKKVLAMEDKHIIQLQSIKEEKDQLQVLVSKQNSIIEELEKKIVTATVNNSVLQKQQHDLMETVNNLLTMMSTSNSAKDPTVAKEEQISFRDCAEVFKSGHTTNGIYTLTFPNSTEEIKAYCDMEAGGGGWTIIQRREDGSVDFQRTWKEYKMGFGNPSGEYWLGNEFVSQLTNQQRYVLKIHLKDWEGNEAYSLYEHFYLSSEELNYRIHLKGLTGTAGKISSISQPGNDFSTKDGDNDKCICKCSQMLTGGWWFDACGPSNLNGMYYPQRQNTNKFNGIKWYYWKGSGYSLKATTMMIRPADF

human Ang-2 H375Q = molecular target: T6, human Ang-2 H375Q (human, UniProt O15123 19-496); test: ELISA
T6 sequence: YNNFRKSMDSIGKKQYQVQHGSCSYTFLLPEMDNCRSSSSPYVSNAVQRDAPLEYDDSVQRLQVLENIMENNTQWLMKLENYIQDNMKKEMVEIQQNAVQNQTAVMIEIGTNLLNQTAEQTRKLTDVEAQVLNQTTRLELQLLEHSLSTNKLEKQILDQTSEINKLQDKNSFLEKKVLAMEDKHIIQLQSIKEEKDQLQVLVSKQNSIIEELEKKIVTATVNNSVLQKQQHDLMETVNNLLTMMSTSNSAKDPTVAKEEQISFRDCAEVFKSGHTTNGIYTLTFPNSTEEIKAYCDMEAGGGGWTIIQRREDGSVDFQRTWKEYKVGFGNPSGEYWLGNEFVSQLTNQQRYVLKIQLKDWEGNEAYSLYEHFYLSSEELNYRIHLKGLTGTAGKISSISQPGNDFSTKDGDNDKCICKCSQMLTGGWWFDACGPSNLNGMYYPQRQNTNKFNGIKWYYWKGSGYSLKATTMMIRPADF

human Angiopoietin-2 [3] = molecular target: T7, human Angiopoietin-2 (human, UniProt O15123 19-496); test: Biacore, mAb captured
T7 construct: Mostly bought recombinant protein (R&D Systems 623-AM/CF, 623-AN; biotinylated BT623) or supernatant of transfected 293F cells; also called Ang-2; rhAng-2
T7 sequence: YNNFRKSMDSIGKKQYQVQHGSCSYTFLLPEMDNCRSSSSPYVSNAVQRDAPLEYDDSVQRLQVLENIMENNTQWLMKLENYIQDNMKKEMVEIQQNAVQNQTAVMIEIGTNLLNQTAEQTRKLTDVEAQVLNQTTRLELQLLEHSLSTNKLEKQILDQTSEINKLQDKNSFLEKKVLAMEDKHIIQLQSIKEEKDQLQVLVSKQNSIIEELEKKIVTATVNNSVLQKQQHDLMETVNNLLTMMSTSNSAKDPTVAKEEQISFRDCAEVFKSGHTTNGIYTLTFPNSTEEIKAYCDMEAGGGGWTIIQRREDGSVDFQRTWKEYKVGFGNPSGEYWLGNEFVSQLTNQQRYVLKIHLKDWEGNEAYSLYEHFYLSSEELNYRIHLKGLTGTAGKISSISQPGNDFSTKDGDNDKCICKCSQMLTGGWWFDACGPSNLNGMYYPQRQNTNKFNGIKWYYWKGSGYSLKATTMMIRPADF
Protocol: (§1) The label-free surface plasmon resonance (SPR), or Biacore, was utilized to measure the antibody affinity to the antigen. For this purpose, a high-density goat anti-human antibody surface over a CM5 Biacore chip was prepared using routine amine coupling. All the purified mAbs were diluted to approximately 8 μg/ml in HBS-P running buffer containing 100 μg/ml BSA and 10 mg/mL carboxymethyldextran. Each mAb was captured on a separate surface using a 42-second contact time, and a 5-minute wash for stabilization of the mAb baseline.
(§2) Data were fit globally to a 1:1 interaction model to determine the binding kinetics.

human Angiopoietin-2 [4] = molecular target: T7, human Angiopoietin-2; test: Biacore; kd held constant (*)
Protocol: as §1, §2

human Angiopoietin-2 [5] = molecular target: T7, human Angiopoietin-2; test: inhibition of rhAng-2 binding to its receptor

B1: mAb 5.41.1 (antibody, V domains shown)
VH: EVQLVESGGGLVQPGGSLRLSCAASGFTFSSYWMSWVRQAPGKGLEWVANIKEDGSEKYYVDSVKGRFTISRDNAKNSLYLQMNSLRAEDTAVFYCARDRSSGFFDYWGQGTLVTVSS
VL: EIVMTQSPATLSVSPGERATLSCRASQSVSSNLAWYQQKPGQAPRFLIYGASTRATGIPARFSGSGSGTEFTLTISSLQSEDFAVYYCQQYNHWWTFGQGTKVEIKR
notes: Human hybridoma IgG (XenoMouse); also called x5.41
- binding result (human Angiopoietin-1): no binding
- binding result (mouse Angiopoietin-2): no binding

Binder: B2
- binding result [1]: binds

B3: mAb 6.3.1 (antibody, V domains shown)
VH: QVQLVQSGAEVKKPGASVKVSCKASGYTFTGYFMHWVPQAPGQGLEWMGWINPNSGGTNYAQNFQGRVTMTRDTSISTAYMELSRLRSDDTPVYYCARDPWQNWNSYFDYWGQGTLVTVSS
VL: DIQMTQSPSSLSASVGDRVTITCRASQSIRSYLNWYQQKPGKAPKVLIYAASSLQSGVPSRFSGSGSGTDFTLTISSLQPEDFATYYCQQSYSTLCSFGQGTKLEIKR
notes: Human hybridoma IgG (XenoMouse); also called x6.3
- % of binding to human Ang-2 (human Ang-2443): 100%
- % of binding to human Ang-2 [2]: 100%
- % of binding to human Ang-2 (human Ang-2 V345M): 100%
- % of binding to human Ang-2 (human Ang-2 H375Q): 100%
- binding result (human Angiopoietin-1): no binding
- Kd (human Angiopoietin-2 [3]): ≤ 0.073 nM
- kon (human Angiopoietin-2 [3]): 140000 M⁻¹ s⁻¹
- koff (human Angiopoietin-2 [4]): ≤ 1e-05 s⁻¹
- OD650 in inhibition assay (human Angiopoietin-2 [5]): 0.0617 OD650

B4: mAb 5.16.3 (antibody, V domains shown)
VH: QVQLVQSGAEVKKPGASVKVSCKASGYTFTGFYMYWVRQAPGQGLEWMGWINPNSSGTNHAQKFQGRVTMTRDTSISTAYMELSRLRSDDTAVYYCARDQDIATAGPFDYWGQGTLVTVSS
VL: EIVMTQSPATLSVSPGERATLSCRASQSVSSNLAWYQQKPGQAPRLLIFGASTRATGIPARFSGSGSGTEFTLTISSLQSEDFAVYYCQQYNNWWTFGRGTKVEIKR
notes: Human hybridoma IgG (XenoMouse); also called x5.16
- binding result (human Angiopoietin-1): no binding
- binding result (mouse Angiopoietin-2): no binding
